# Reference: the supplement of paper PMC9112550, “Optimization of the antimicrobial peptide Bac7 by deep mutational scanning” (BMC Biology, 2022)
# System: Escherichia coli TOP10
# Assay: shrunken log2 fold change of peptide-encoding DNA abundance (4.5 h post-induction vs induction); higher = less antimicrobial activity (less host growth inhibition)
# Details: time post-induction: 4.5 h; library: site-saturation at positions 5, 18, 19, 20
# 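Further: peptides expressed intracellularly from a pBAD plasmid library in pooled LB shake-flask culture, induced with 0.3% L-arabinose, DNA abundance read by NGS, three biological replicates, DESeq2 with apeglm shrinkage.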
row,Sequence,shrunken log2 fold change
1,RRIRGRPPRLPRPRPRPPEFPRP,1.01
2,RRIRVRPPRLPRPRPRPAQDPRP,0.0947
3,RRIRYRPPRLPRPRPRPDRGPRP,-0.213
4,RRIRCRPPRLPRPRPRPSQHPRP,-0.114
5,RRIRKRPPRLPRPRPRPGQIPRP,0.00502
6,RRIRWRPPRLPRPRPRPDECPRP,-0.012
7,RRIRARPPRLPRPRPRPSTIPRP,-0.273
8,RRIRQRPPRLPRPRPRPTLFPRP,0.12
9,RRIRQRPPRLPRPRPRPWRDPRP,0.19
10,RRIRTRPPRLPRPRPRPIAWPRP,-0.104
11,RRIRGRPPRLPRPRPRPRRAPRP,0.963
12,RRIRFRPPRLPRPRPRPIWQPRP,-0.146
13,RRIRFRPPRLPRPRPRPFTGPRP,-0.246
14,RRIRTRPPRLPRPRPRPTQSPRP,0.311
15,RRIRYRPPRLPRPRPRPTENPRP,-0.239
16,RRIRSRPPRLPRPRPRPECCPRP,0.21
17,RRIRSRPPRLPRPRPRPQSAPRP,0.108
18,RRIRSRPPRLPRPRPRPHVDPRP,-0.0165
19,RRIRNRPPRLPRPRPRPGTEPRP,-0.145
20,RRIRPRPPRLPRPRPRPWHKPRP,-0.29
21,RRIRERPPRLPRPRPRPHCMPRP,-0.235
22,RRIRQRPPRLPRPRPRPYCNPRP,-1.38

row,Sequence,shrunken log2 fold change
1,RRIRLRPPRLPRPRPRPGNQPRP,-0.0104
2,RRIRARPPRLPRPRPRPAVKPRP,0.233
3,RRIRDRPPRLPRPRPRPVWPPRP,0.225
4,RRIRERPPRLPRPRPRPFMQPRP,-0.178
5,RRIRTRPPRLPRPRPRPSWHPRP,-0.23
6,RRIRGRPPRLPRPRPRPHEIPRP,0.0317
7,RRIRRRPPRLPRPRPRPKVTPRP,-0.131
8,RRIRMRPPRLPRPRPRPGMAPRP,1.19
9,RRIRIRPPRLPRPRPRPLSMPRP,-0.395
10,RRIRTRPPRLPRPRPRPIVHPRP,-0.0385
11,RRIRTRPPRLPRPRPRPNNEPRP,-0.581
12,RRIRDRPPRLPRPRPRPCQVPRP,-0.0566
13,RRIRNRPPRLPRPRPRPWLFPRP,0.0966
14,RRIRNRPPRLPRPRPRPNMIPRP,-0.697
15,RRIRIRPPRLPRPRPRPIQLPRP,-0.058
16,RRIRCRPPRLPRPRPRPLLEPRP,0.234
17,RRIRKRPPRLPRPRPRPHKFPRP,0.0822
18,RRIRARPPRLPRPRPRPWGRPRP,0.198
19,RRIRYRPPRLPRPRPRPAPFPRP,-0.11
20,RRIRTRPPRLPRPRPRPKDFPRP,-0.00116
21,RRIRERPPRLPRPRPRPGISPRP,-0.017
22,RRIRARPPRLPRPRPRPHSFPRP,0.00388

row,Sequence,shrunken log2 fold change
1,RRIRNRPPRLPRPRPRPHKSPRP,-0.298
2,RRIRRRPPRLPRPRPRPKILPRP,-0.199
3,RRIRFRPPRLPRPRPRPPDQPRP,0.63
4,RRIRWRPPRLPRPRPRPDYHPRP,-0.219
5,RRIRNRPPRLPRPRPRPHIDPRP,-0.186
6,RRIRFRPPRLPRPRPRPAFYPRP,-0.249
7,RRIRCRPPRLPRPRPRPWVSPRP,-0.463
8,RRIRWRPPRLPRPRPRPKMRPRP,1.25
9,RRIRLRPPRLPRPRPRPAMPPRP,0.234
10,RRIRARPPRLPRPRPRPRKMPRP,0.521
11,RRIRCRPPRLPRPRPRPYLWPRP,-0.726
12,RRIRSRPPRLPRPRPRPASGPRP,0.268
13,RRIRTRPPRLPRPRPRPPDDPRP,0.408
14,RRIRCRPPRLPRPRPRPCRHPRP,-0.196
15,RRIRTRPPRLPRPRPRPPAFPRP,-0.216
16,RRIRNRPPRLPRPRPRPRWHPRP,-0.114
17,RRIRLRPPRLPRPRPRPVWDPRP,-0.0661
18,RRIRRRPPRLPRPRPRPQKVPRP,0.234
19,RRIRWRPPRLPRPRPRPNITPRP,-0.161
20,RRIRYRPPRLPRPRPRPYNNPRP,-1.43
21,RRIRRRPPRLPRPRPRPVKMPRP,0.101
22,RRIRLRPPRLPRPRPRPAIGPRP,-0.00988

row,Sequence,shrunken log2 fold change
1,RRIRIRPPRLPRPRPRPGLSPRP,-0.0218
2,RRIRKRPPRLPRPRPRPSMCPRP,-0.472
3,RRIRYRPPRLPRPRPRPNKTPRP,-0.258
4,RRIRCRPPRLPRPRPRPVNPPRP,-0.176
5,RRIRRRPPRLPRPRPRPCINPRP,2.42
6,RRIRHRPPRLPRPRPRPFQNPRP,-0.195
7,RRIRSRPPRLPRPRPRPMLFPRP,-0.196
8,RRIRRRPPRLPRPRPRPTALPRP,0.554
9,RRIRMRPPRLPRPRPRPGYHPRP,0.0695
10,RRIRVRPPRLPRPRPRPPVKPRP,-0.112
11,RRIRWRPPRLPRPRPRPDCWPRP,0.967
12,RRIRDRPPRLPRPRPRPCKFPRP,0.0155
13,RRIRIRPPRLPRPRPRPENCPRP,-0.00941
14,RRIRCRPPRLPRPRPRPFRAPRP,-0.277
15,RRIRHRPPRLPRPRPRPNVCPRP,-0.0562
16,RRIRYRPPRLPRPRPRPQTDPRP,-0.274
17,RRIRCRPPRLPRPRPRPPICPRP,-0.248
18,RRIRNRPPRLPRPRPRPMNAPRP,-0.281
19,RRIRMRPPRLPRPRPRPMKQPRP,0.0424
20,RRIRDRPPRLPRPRPRPGSKPRP,-0.126
21,RRIRHRPPRLPRPRPRPPPPPRP,1.05
22,RRIRKRPPRLPRPRPRPPMLPRP,0.203

row,Sequence,shrunken log2 fold change
1,RRIRVRPPRLPRPRPRPDFVPRP,-0.0423
2,RRIRKRPPRLPRPRPRPQNSPRP,-0.0372
3,RRIRHRPPRLPRPRPRPTTPPRP,0.0328
4,RRIRHRPPRLPRPRPRPVSTPRP,-0.263
5,RRIRYRPPRLPRPRPRPERRPRP,0.197
6,RRIRHRPPRLPRPRPRPMAYPRP,-0.0524
7,RRIRWRPPRLPRPRPRPRKKPRP,0.408
8,RRIRDRPPRLPRPRPRPTKQPRP,0.188
9,RRIRLRPPRLPRPRPRPAMSPRP,0.019
10,RRIRCRPPRLPRPRPRPNKFPRP,-0.472
11,RRIRCRPPRLPRPRPRPGQHPRP,0.00766
12,RRIRKRPPRLPRPRPRPKCGPRP,0.0305
13,RRIRGRPPRLPRPRPRPSYKPRP,-0.197
14,RRIRERPPRLPRPRPRPMMNPRP,-0.122
15,RRIRLRPPRLPRPRPRPQCGPRP,0.0192
16,RRIRHRPPRLPRPRPRPMDMPRP,0.0881
17,RRIRIRPPRLPRPRPRPCFIPRP,-0.503
18,RRIRCRPPRLPRPRPRPGIDPRP,0.0673
19,RRIRYRPPRLPRPRPRPDSWPRP,-0.602
20,RRIRYRPPRLPRPRPRPFMPPRP,-0.323
21,RRIRPRPPRLPRPRPRPQGYPRP,-0.0854
